# Reference: US20180155451A1 (published 2018)
# T1: FcγRIIb, extracellular domain with C-terminal His tag (human, UniProt P31994 43-217)
# T1 construct: extracellular domain; soluble receptor used as Biacore analyte; also called 2b; FcgRIIb
# T1 sequence (looked up): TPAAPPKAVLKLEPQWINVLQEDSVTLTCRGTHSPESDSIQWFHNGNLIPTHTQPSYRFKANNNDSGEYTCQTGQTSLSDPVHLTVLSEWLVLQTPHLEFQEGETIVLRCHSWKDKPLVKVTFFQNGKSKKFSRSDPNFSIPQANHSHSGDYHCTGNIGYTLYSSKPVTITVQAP
# T2: FcγRIIa R (FcγRIIa, allotype R, Arg at position 131), extracellular domain with C-terminal His tag (human, UniProt P12318 34-217)
# T2 construct: extracellular domain; soluble receptor used as Biacore analyte; also called 2aR; FcgRIIa R
# T2 sequence (looked up): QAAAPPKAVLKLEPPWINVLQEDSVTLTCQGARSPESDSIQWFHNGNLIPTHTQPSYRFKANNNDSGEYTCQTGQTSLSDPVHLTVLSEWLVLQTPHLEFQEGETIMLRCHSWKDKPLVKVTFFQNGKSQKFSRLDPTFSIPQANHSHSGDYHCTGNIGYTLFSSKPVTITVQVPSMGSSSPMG
# B1: heterodimerized antibody GpH7-A5/GpH7-B3 variant H268_13S/GpL16-k0 (antibody, human IgG1, kappa)
# heavy 1: not shown
# heavy 2: not shown
# light: DIVMTQSPLSLPVTPGEPASISCQASESLVHSNRNTYLHWYLQKPGQSPQLLIYKVSNRFSGVPDRFSGSGSGTDFTLKISRVEAEDVGVYYCSQNTHVPPTFGQGTKVEIERTVAAPSVFIFPPSDEQLKSGTASVVCLLNNFYPREAKVQWKVDNALQSGNSQESVTEQDSKDSTYSLSSTLTLSKADYEKHKVYACEVTHQGLSSPVTKSFNRGEC
# notes: He Ab: anti-glypican-3 IgG1, alteration in one H chain only; also called He Ab
# B2: heterodimerized antibody GpH7-A5/GpH7-B3 variant D270_05P/GpL16-k0 (antibody, human IgG1, kappa)
# heavy 1: not shown
# heavy 2: not shown
# light: B1 light
# notes: as for B1
# B3: heterodimerized antibody GpH7-A5/GpH7-B3 variant K326_08L/GpL16-k0 (antibody, human IgG1, kappa)
# heavy 1: not shown
# heavy 2: not shown
# light: B1 light
# notes: as for B1
# B4: heterodimerized antibody GpH7-A5/GpH7-B3 variant H268_10E/GpL16-k0 (antibody, human IgG1, kappa)
# heavy 1: not shown
# heavy 2: not shown
# light: B1 light
# notes: as for B1
# B5: heterodimerized antibody GpH7-A5/GpH7-B3 variant G237_20W/GpL16-k0 (antibody, human IgG1, kappa)
# heavy 1: not shown
# heavy 2: not shown
# light: B1 light
# notes: as for B1
# B6: heterodimerized antibody GpH7-A5/GpH7-B3 variant A327_09D/GpL16-k0 (antibody, human IgG1, kappa)
# heavy 1: not shown
# heavy 2: not shown
# light: B1 light
# notes: as for B1
# B7: heterodimerized antibody GpH7-A5/GpH7-B3 variant A327_10E/GpL16-k0 (antibody, human IgG1, kappa)
# heavy 1: not shown
# heavy 2: not shown
# light: B1 light
# notes: as for B1
# B8: heterodimerized antibody GpH7-A5/GpH7-B3 variant A327_18N/GpL16-k0 (antibody, human IgG1, kappa)
# heavy 1: not shown
# heavy 2: not shown
# light: B1 light
# notes: as for B1
# B9: heterodimerized antibody GpH7-A5/GpH7-B3 variant H268_09D/GpL16-k0 (antibody, human IgG1, kappa)
# heavy 1: not shown
# heavy 2: not shown
# light: B1 light
# notes: as for B1
# B10: heterodimerized antibody GpH7-A5/GpH7-B3 variant G236_09D/GpL16-k0 (antibody, human IgG1, kappa)
# heavy 1: not shown
# heavy 2: not shown
# light: B1 light
# notes: as for B1
# B11: heterodimerized antibody GpH7-A5/GpH7-B3 variant K326_07I/GpL16-k0 (antibody, human IgG1, kappa)
# heavy 1: not shown
# heavy 2: not shown
# light: B1 light
# notes: as for B1
# B12: heterodimerized antibody GpH7-A5/GpH7-B3 variant A327_07I/GpL16-k0 (antibody, human IgG1, kappa)
# heavy 1: not shown
# heavy 2: not shown
# light: B1 light
# notes: as for B1
# B13: heterodimerized antibody GpH7-A5/GpH7-B3 variant H268_02A/GpL16-k0 (antibody, human IgG1, kappa)
# heavy 1: not shown
# heavy 2: not shown
# light: B1 light
# notes: as for B1
# B14: heterodimerized antibody GpH7-A5/GpH7-B3 variant G237_09D/GpL16-k0 (antibody, human IgG1, kappa)
# heavy 1: not shown
# heavy 2: not shown
# light: B1 light
# notes: as for B1
# B15: heterodimerized antibody GpH7-A5/GpH7-B3 variant K326_09D/GpL16-k0 (antibody, human IgG1, kappa)
# heavy 1: not shown
# heavy 2: not shown
# light: B1 light
# notes: as for B1
# B16: heterodimerized antibody GpH7-A5/GpH7-B3 variant L328_12R/GpL16-k0 (antibody, human IgG1, kappa)
# heavy 1: not shown
# heavy 2: not shown
# light: B1 light
# notes: as for B1
# B17: heterodimerized antibody GpH7-A5/GpH7-B3 variant A327_12R/GpL16-k0 (antibody, human IgG1, kappa)
# heavy 1: not shown
# heavy 2: not shown
# light: B1 light
# notes: as for B1
# B18: heterodimerized antibody GpH7-A5/GpH7-B3 variant L328_11K/GpL16-k0 (antibody, human IgG1, kappa)
# heavy 1: not shown
# heavy 2: not shown
# light: B1 light
# notes: as for B1
# Molecular target: T1, FcγRIIb, extracellular domain with …
# Assay: Biacore SPR; binding relative to GpH7-A5/GpH7-B3/GpL16-k0 (=100)
# Protocol: (§1) The heterodimerized antibodies He Abs in which one of the H chains was introduced with an alteration were assayed for their binding activities to each activating FcγR and inhibitory FcγR according to the method described in Example 4. […] The activating FcγRs in FIGS. 26, 27, 28, and 29 are FcγRIa, FcγRIIa (R), FcγRIIa (H), and FcγRIIIa, respectively.
# (§2) Analysis of interaction between objective antibody and the FcγR was carried out using Biacore T100 (GE Healthcare). HBS-EP+ (GE Healthcare) was used as the running buffer, and the measurement temperature was set to 25° C. Chips produced by immobilizing the antigen peptide by the amine coupling method to a Series S Sencor Chip CM5 (GE Healthcare), or alternatively, chips produced by allowing preliminarily biotinylated antigen peptides to interact with and immobilize onto a Series S Sensor Chip SA (certified) (GE Healthcare) were used. Antibodies of interest were captured onto an antigen peptide-immobilized chip, and allowed to interact to each FcγR diluted with running buffer. To regenerate and repeatedly use the chip, the antibodies captured on the chip were washed off by reacting 10 mM glycine-HCl, pH 1.5.
row,He/Con_2b (IIb binding),Binder
1,160 % of control,B1
2,13.9 % of control,B2
3,177 % of control,B3
4,230 % of control,B4
5,193 % of control,B5
6,172 % of control,B6
7,140 % of control,B7
8,113 % of control,B8
9,239 % of control,B9
10,167 % of control,B10
11,199 % of control,B11
12,127 % of control,B12
13,167 % of control,B13
14,223 % of control,B14
15,193 % of control,B15

# Molecular target: T2, FcγRIIa R (FcγRIIa, allotype R, Arg at …)
# Assay: as above
# Protocol: as §1, §2
row,He/Con_2aR (IIaR binding),Binder
1,127 % of control,B1
2,7.5 % of control,B2
3,137 % of control,B3
4,148 % of control,B4
5,138 % of control,B5
6,124 % of control,B6
7,110 % of control,B7
8,88.9 % of control,B8
9,5 % of control,B16
10,149 % of control,B9
11,6 % of control,B17
12,106 % of control,B10
13,147 % of control,B11
14,98 % of control,B12
15,2.5 % of control,B18
16,133 % of control,B13
17,156 % of control,B14
18,148 % of control,B15

# Molecular target: T2, FcγRIIa R (FcγRIIa, allotype R, Arg at …)
# Assay: Biacore SPR; He/Con_2aR divided by He/Con_2b (FcγRIIb)
# Protocol: as §1, §2
row,IIaR/IIb (He_2aR/2b),Binder
1,0.8,B1
2,0.54,B2
3,0.77,B3
4,0.64,B4
5,0.71,B5
6,0.72,B6
7,0.78,B7
8,0.79,B8
9,0.54,B16
10,0.62,B9
11,0.67,B17
12,0.64,B10
13,0.74,B11
14,0.77,B12
15,0.33,B18
16,0.8,B13
17,0.7,B14
18,0.77,B15
